The supplement of paper PMC10567573

B1: LOC100129726 (parent)
chain: AKAADSPTRNDLESGLGHFSLRVH

Variants of: B1
Assay: protein stability index of a GFP-peptide fusion (GPS, HEK-293T) (PSI 1-6); higher = more stable
Conditions: c terminus: a fixed tail appended
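Also: lentivirally expressed fusions sorted by FACS into six bins by GFP to DsRed ratio, PSI derived from sequencing read proportions per bin multiplied by bin number.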

Variant | protein stability index
L12G | 3.52
L12M | 3.78
L12R | 3.76
L12Q | 4.45
L12W | 2.6
L12T | 2.91
L12V | 3.62
L12C | 2.82
L12E | 4
L12K | 3.92
L12Y | 1.93
L12S | 4.46
L12P | 3.51
L12A | 3.47
L12D | 3.9
L12H | 3.57
L12I | 3
L12F | 3.06
L12N | 4.16
G17A | 2.84
G17V | 3.13
G17H | 2.57
G17E | 3.58
G17L | 1.65

Variant | protein stability index
G17M | 2.27
G17C | 2.85
G17D | 3.82
G17P | 3.06
G17K | 2.89
G17W | 2.96
G17R | 2.89
G17S | 2.84
G17T | 2.56
G17Y | 2.37
G17N | 3.18
G17I | 2.28
G17F | 2.08
F19L | 3.31
F19G | 4.32
F19K | 4.63
F19P | 4.33
F19A | 3.95
F19M | 3.69
F19D | 4.6
F19E | 4.6
F19N | 4.24
F19Q | 4.33
F19H | 3.67

Variant | protein stability index
E13C | 2.31
E13A | 2.26
E13K | 2.08
E13D | 2.95
E13P | 2.57
E13N | 2.63
E13R | 2.38
E13M | 2.15
E13Y | 1.38
E13I | 2.32
E13V | 2.52
E13F | 2.19
E13S | 2.8
E13T | 2.59
E13G | 2.02
E13W | 1.85
E13Q | 2.3
E13H | 2.74
D11W | 2.56
D11H | 2.42
D11K | 2.72
D11R | 2.54
D11C | 2.91
D11M | 2.19

Variant | protein stability index
D11Q | 2.8
D11G | 2.33
D11S | 2.64
D11V | 2.21
D11Y | 2.25
D11I | 1.96
D11N | 2.47
D11T | 2.3
D11A | 3.1
D11F | 2.75
D11P | 2.35
D11L | 1.9
D11E | 3.9
S14G | 2.9
S14I | 2.38
S14A | 3.28
S14V | 2.63
S14Q | 2.94
S14T | 2.94
S14Y | 3.97
S14D | 3.85
S14N | 3.68
S14W | 1.36
S14K | 3.36

Variant | protein stability index
S14E | 3.81
S14R | 2.78
S14P | 2.85
S14L | 2.57
S14C | 2.34
S14H | 3.21
S14F | 2.25
S14M | 2.5
L16Q | 3.28
L16D | 3.82
L16K | 3.89
L16G | 3.58
L16S | 3.77
L16H | 3.44
L16R | 3.78
L16I | 3.71
L16W | 2.74
L16M | 3.26
L16V | 2.38
L16E | 4.23
L16Y | 2.84
L16F | 2.57
L16A | 3.97
L16N | 3.67

Variant | protein stability index
L16P | 3.12
L16T | 3.8
G15L | 2.37
G15E | 2.82
G15W | 1.57
G15F | 1.74
G15I | 1.86
G15N | 2.82
G15D | 3.51
G15H | 3.26
G15Y | 2.4
G15C | 2.18
G15A | 2.4
G15K | 2.93
G15P | 2.79
G15Q | 3.81
G15T | 2.67
G15R | 2.06
G15M | 2.23
G15S | 2.86
G15V | 2.48
H18D | 4.08
H18K | 3.15
H18N | 3.53

Variant | protein stability index
H18V | 2.73
H18R | 3.08
H18Y | 2.66
H18M | 2.29
H18E | 3.45
H18Q | 3.44
H18I | 3.13
H18C | 3.2
H18P | 3.04
H18T | 3.05
H18S | 3.73
H18W | 1.59
H18F | 2.1
H18L | 2.38
H18G | 3.84
H18A | 3.25
N10R | 3.17
N10V | 2.56
N10Y | 1.97
N10T | 2.79
N10S | 3.17
N10Q | 3.87
N10W | 1.88
